From patent publication US9127038B2, “Kisspeptide-pentasaccharide conjugates” (Merck Sharp & Dohme Corp., priority 2011, dated 2015)
Read-outs that look alike come from different tables or passages of the source.

What was measured:
[1] = In vitro stability in human serum (LC/MS/MS); details: human
Procedure: Test compound is added to 1.5 mL human serum in a 96-wells deepwell plate in a final concentration of 750 nM. The compound is mixed and immediately thereafter a 100 μl sample is harvested in a 96-wells 2D-tuberack (T=0 sample). The 2 D-tubes are closed with rubber tube caps and the sample plate is stored at −20° CF. in the freezer. The deepwell plate is put into an incubator which was set at humidified (95%) atmosphere at 5-7% CO2 and 37° C. for an incubation period of maximum 240 h. During this incubation period, samples of 100 μl are collected on various time intervals, dependent on the test compound used; time points 0, 1, 2, 3, 6, 24, 48, 72 h in case of Kisspeptides and 0, 3, 6, 24, 48, 72, 168, 240 h in case of kisspeptide-pentasaccharide conjugates. Sample plates are put on ice in case of sampling and stored at −20° C. until analysis by LC/MS/MS.
For LC-MS/MS analysis, the compounds are separated over an XTerra RP8 column and using a gradient mobile phase of ammonium acetate buffer and acetonitrile at a fixed column temperature. MS/MS detection is done with a triple quadrupole mass spectrometer and employing negative ion electrospray ionization. The mass spectrometer is set up to achieve a known degree of in source fragmentation, where the initially formed multiply charged negative ions lose one or more SO3 molecules. The most abundant of these secondary ions are then subjected to a common MS/MS experiment in which a single SO3 loss is monitored. The Q1 and Q3 mass filter settings for this MS/MS experiment have commonly been determined in method development. […] Internal standardization is accomplished by adding a different conjugate of approximately the same size to the bioanalytical samples.
The rate of compound loss is expressed as a half-life (plasma t^1/2). The t^1/2 for the test compound can be determined by plotting the natural logarithm (In) of the measured concentrations against time and fitting the line through all data points. The gradient of this line is the first order rate constant (k) for substrate disappearance and is determined by regression analysis. The rate constant is converted to a half-life according to the following equation: In vitro half-life(t^1/2)=−ln 2/k

[2] = biological target: T1, human KISS-receptor (Homo sapiens, UniProt Q969F8); assay: NFAT-regulated luciferase reporter gene assay in CHO-k1 cells, agonist activity; type: cell-based
T1 construct: expressed in transfected cells; host or cells: CHO-k1 cells that also express mitochondrially targeted aequorin, Gα16 and an NFAT-luciferase reporter
Procedure: CHO-k1 cells were used that expressed the mitochondrially targeted aequorine and Gα16 (from Euroscreen, Brussels, Belgium), a Nuclear Factor of Activated T-cells-responsive element (NFAT) under the control of a promoter directing the expression of a firefly luciferase reporter gene (pNFAT-TALuc obtained from Clontech, Mountain View, Calif.), and the human GPR54-R Hygro(+)-hGPR54WT c4; MSD). These cells were cultured in Dulbecco's Modified Eagle Medium: Nutrient Mixture F-12 (DMEM/F12) (Invitrogen, Carlsbad, Calif.), supplemented with 10% (vol/vol) filtered bovine serum (Hyclone, Thermo Fisher Scientific, Waltham, Mass.), 100 U/ml penicillin G, 100 μg/ml streptomycin, 400 μg/ml Geneticin and 400 μg/ml Hygromycin (Invitrogen). […] Kisspeptin-10 was used as a standard. […] When the conjugates were tested in the presence of a final percentage of 20% human serum, 10 μl assay medium containing 60% human serum (Sigma-Aldrich, #H4522) was added to the wells. In the absence of human serum, 10 μl of assay medium was added. Cells were harvested and diluted to a concentration of 7.5E5 cells/ml in assay medium without 0.1% BSA. 10 μl of cell solution was added to the compound wells. After incubation for 4 hours in a humidified atmosphere at 5% CO2 and 37° C., the plate was left at room temperature for 30 minutes. Subsequently, 15 μl of Steadylite™ solution (PerkinElmer, Boston, Mass.) was added and the cells, protected from light, were allowed to lyse for 30 min at room temperature. Luminescence, indicated as relative luminescence units (RLU), was measured on an Envision Multilabel reader (PerkinElmer).

[3] = pEC50 serum, presence of 20% human serum
[4] = absence of human serum, read-out: pEC50 (converted)
[5] = presence of 20% human serum, read-out: pEC50 serum (converted)

T1 sequence (Q969F8 whole entry): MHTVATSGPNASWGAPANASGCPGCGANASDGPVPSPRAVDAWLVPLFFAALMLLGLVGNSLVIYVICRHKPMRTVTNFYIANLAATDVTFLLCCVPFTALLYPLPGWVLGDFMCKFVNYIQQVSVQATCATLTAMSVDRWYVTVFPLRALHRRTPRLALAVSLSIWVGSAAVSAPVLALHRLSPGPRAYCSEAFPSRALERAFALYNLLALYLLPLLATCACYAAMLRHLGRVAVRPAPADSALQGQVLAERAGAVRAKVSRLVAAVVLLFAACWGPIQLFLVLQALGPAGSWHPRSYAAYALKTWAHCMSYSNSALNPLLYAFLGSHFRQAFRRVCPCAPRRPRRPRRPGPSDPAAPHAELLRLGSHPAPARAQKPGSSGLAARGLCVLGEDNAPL

## CNC(=N)NCCC[C@H](NC(=O)[C@H](CC(C)C)NC(=O)NNC(=O)[C@H](Cc1ccccc1)NC(=O)[C@@H](NC(=O)[C@H](CC(N)=O)NC(=O)[C@H](Cc1c[nH]c2ccccc12)NC(=O)[C@H](CC(N)=O)NC(=O)[C@@H](Cc1ccc(O)cc1)NC(=O)CCCCn1cc(CCC(=O)NCCOCCOCCOCCO[C@H]2[C@H](OC)[C@@H](OC)[C@@H](O[C@H]3[C@H](OC)[C@@H](OC)[C@H](O[C@H]4[C@H](OS(=O)(=O)O)[C@@H](OS(=O)(=O)O)[C@@H](O[C@H]5[C@H](OC)[C@@H](OC)[C@H](O[C@H]6[C@H](OC)[C@@H](OS(=O)(=O)O)[C@@H](OC)O[C@@H]6COS(=O)(=O)O)O[C@H]5C(=O)O)O[C@@H]4COS(=O)(=O)O)O[C@@H]3C(=O)O)O[C@@H]2COS(=O)(=O)O)nn1)[C@@H](C)O)C(=O)N[C@@H](Cc1ccccc1)C(N)=O [Conjugate C7]
[1]
  half-life at 750 nM: 171 h
[2]; pEC50, absence of human serum
  EC50: 0.158 nM
[2]; [3]
  EC50: 0.501 nM

## CNC(=N)NCCC[C@H](NC(=O)[C@H](CC(C)C)NC(=O)NNC(=O)[C@H](Cc1ccccc1)NC(=O)[C@@H](NC(=O)[C@H](CC(N)=O)NC(=O)[C@H](Cc1c[nH]c2ccccc12)NC(=O)[C@H](CC(N)=O)NC(=O)[C@@H](Cc1ccc(O)cc1)NC(=O)CCOCCOCCOCCOCCn1cc(CCC(=O)NCCOCCOCCOCCO[C@H]2[C@H](OC)[C@@H](OC)[C@@H](O[C@H]3[C@H](OC)[C@@H](OC)[C@H](O[C@H]4[C@H](OS(=O)(=O)O)[C@@H](OS(=O)(=O)O)[C@@H](O[C@H]5[C@H](OC)[C@@H](OC)[C@H](O[C@H]6[C@H](OS(=O)(=O)O)[C@@H](OS(=O)(=O)O)[C@@H](OC)O[C@@H]6COS(=O)(=O)O)O[C@H]5C(=O)O)O[C@@H]4COS(=O)(=O)O)O[C@@H]3C(=O)O)O[C@@H]2COS(=O)(=O)O)nn1)C(C)O)C(=O)N[C@@H](Cc1ccccc1)C(N)=O (stereo partly shown) [Conjugate C11]
[1]
  half-life at 750 nM: > 240 h

## CNC(=N)NCCC[C@H](NC(=O)[C@H](CC(C)C)n1cc(CNC(=O)[C@H](Cc2ccccc2)NC(=O)[C@@H](NC(=O)[C@H](CC(N)=O)NC(=O)[C@H](Cc2c[nH]c3ccccc23)NC(=O)[C@H](CC(N)=O)NC(=O)[C@@H](Cc2ccc(O)cc2)NC(=O)CCCCn2cc(CCC(=O)NCCOCCOCCOCCO[C@H]3[C@H](OC)[C@@H](OC)[C@@H](O[C@H]4[C@H](OC)[C@@H](OC)[C@H](O[C@H]5[C@H](OS(=O)(=O)O)[C@@H](OS(=O)(=O)O)[C@@H](O[C@H]6[C@H](OC)[C@@H](OC)[C@H](O[C@H]7[C@H](OC)[C@@H](OS(=O)(=O)O)[C@@H](OC)O[C@@H]7COS(=O)(=O)O)O[C@H]6C(=O)O)O[C@@H]5COS(=O)(=O)O)O[C@@H]4C(=O)O)O[C@@H]3COS(=O)(=O)O)nn2)[C@@H](C)O)nn1)C(=O)N[C@@H](Cc1ccccc1)C(N)=O [Conjugate C18]
[1]
  half-life at 750 nM: 233 h

## CNC(=N)NCCC[C@H](NC(=O)[C@H](CC(C)C)n1cc(CNC(=O)[C@H](Cc2ccccc2)NC(=O)[C@@H](NC(=O)[C@H](CC(N)=O)NC(=O)[C@H](Cc2c[nH]c3ccccc23)NC(=O)[C@H](CC(N)=O)NC(=O)[C@@H](Cc2ccc(O)cc2)NC(=O)CCOCCOCCOCCOCCn2cc(CCC(=O)NCCOCCOCCOCCO[C@H]3[C@H](OC)[C@@H](OC)[C@@H](O[C@H]4[C@H](OC)[C@@H](OC)[C@H](O[C@H]5[C@H](OS(=O)(=O)O)[C@@H](OS(=O)(=O)O)[C@@H](O[C@H]6[C@H](OC)[C@@H](OC)[C@H](O[C@H]7[C@H](OC)[C@@H](OS(=O)(=O)O)[C@@H](OC)O[C@@H]7COS(=O)(=O)O)O[C@H]6C(=O)O)O[C@@H]5COS(=O)(=O)O)O[C@@H]4C(=O)O)O[C@@H]3COS(=O)(=O)O)nn2)[C@@H](C)O)nn1)C(=O)N[C@@H](Cc1ccccc1)C(N)=O [Conjugate C19]
[1]
  half-life at 750 nM: 175 h

## CNC(=N)NCCC[C@H](NC(=O)[C@H](CC(C)C)n1cc(CNC(=O)[C@H](Cc2ccccc2)NC(=O)[C@@H](NC(=O)[C@H](CC(N)=O)NC(=O)[C@H](Cc2c[nH]c3ccccc23)NC(=O)[C@H](CC(N)=O)NC(=O)[C@@H](Cc2ccc(O)cc2)NC(=O)CCOCCOCCOCCOCCn2cc(CCC(=O)NCCOCCOCCOCCO[C@H]3[C@H](OC)[C@@H](OC)[C@@H](O[C@H]4[C@H](OC)[C@@H](OC)[C@H](O[C@H]5[C@H](OS(=O)(=O)O)[C@@H](OS(=O)(=O)O)[C@@H](O[C@H]6[C@H](OC)[C@@H](OC)[C@H](O[C@H]7[C@H](OS(=O)(=O)O)[C@@H](OS(=O)(=O)O)[C@@H](OC)O[C@@H]7COS(=O)(=O)O)O[C@H]6C(=O)O)O[C@@H]5COS(=O)(=O)O)O[C@@H]4C(=O)O)O[C@@H]3COS(=O)(=O)O)nn2)[C@@H](C)O)nn1)C(=O)N[C@@H](Cc1ccccc1)C(N)=O [Conjugate C20]
[1]
  half-life at 750 nM: > 240 h

## CNC(=N)NCCC[C@H](NC(=O)[C@H](CC(C)C)NC(=O)NNC(=O)[C@H](Cc1ccccc1)NC(=O)[C@@H](NC(=O)[C@H](CC(N)=O)NC(=O)[C@H](Cc1c[nH]c2ccccc12)NC(=O)[C@H](CC(N)=O)NC(=O)[C@H](Cc1ccc(O)cc1)NC(=O)CCCCn1cc(CCC(=O)NCCOCCOCCOCCO[C@H]2[C@H](OC)[C@@H](OC)[C@@H](O[C@H]3[C@H](OC)[C@@H](OC)[C@H](O[C@H]4[C@H](OS(=O)(=O)O)[C@@H](OS(=O)(=O)O)[C@@H](O[C@H]5[C@H](OC)[C@@H](OC)[C@H](O[C@H]6[C@H](OS(=O)(=O)O)[C@@H](OS(=O)(=O)O)[C@@H](OC)O[C@@H]6COS(=O)(=O)O)O[C@H]5C(=O)O)O[C@@H]4COS(=O)(=O)O)O[C@@H]3C(=O)O)O[C@@H]2COS(=O)(=O)O)nn1)[C@@H](C)O)C(=O)N[C@@H](Cc1ccccc1)C(N)=O [Conjugate C22]
[1]
  half-life at 750 nM: > 240 h

## CNC(=N)NCCC[C@H](NC(=O)[C@H](CC(C)C)NC(=O)CNC(=O)[C@H](Cc1ccccc1)NC(=O)[C@@H](NC(=O)[C@H](CC(N)=O)NC(=O)[C@@H]1C[C@@H](O)CN1C(=O)[C@H](CC(N)=O)NC(=O)[C@H](Cc1ccc(O)cc1)NC(=O)CCOCCOCCOCCOCCn1cc(CCC(=O)NCCOCCOCCOCCO[C@H]2[C@H](OC)[C@@H](OC)[C@@H](O[C@H]3[C@H](OC)[C@@H](OC)[C@H](O[C@H]4[C@H](OS(=O)(=O)O)[C@@H](OS(=O)(=O)O)[C@@H](O[C@H]5[C@H](OC)[C@@H](OC)[C@H](O[C@H]6[C@H](OS(=O)(=O)O)[C@@H](OS(=O)(=O)O)[C@@H](OC)O[C@@H]6COS(=O)(=O)O)O[C@H]5C(=O)O)O[C@@H]4COS(=O)(=O)O)O[C@@H]3C(=O)O)O[C@@H]2COS(=O)(=O)O)nn1)[C@@H](C)O)C(=O)N[C@@H](Cc1ccccc1)C(N)=O [Conjugate C26]
[1]
  half-life at 750 nM: > 240 h

## CNC(=N)NCCC[C@H](NC(=O)[C@H](CC(C)C)NC(=O)NNC(=O)[C@H](Cc1ccccc1)NC(=O)[C@@H](NC(=O)[C@H](CC(N)=O)NC(=O)[C@@H]1C[C@@H](O)CN1C(=O)[C@@H](Cc1ccc(O)cc1)NC(=O)CCCCn1cc(CCC(=O)NCCOCCOCCOCCO[C@H]2[C@H](OC)[C@@H](OC)[C@@H](O[C@H]3[C@H](OC)[C@@H](OC)[C@H](O[C@H]4[C@H](OS(=O)(=O)O)[C@@H](OS(=O)(=O)O)[C@@H](O[C@H]5[C@H](OC)[C@@H](OC)[C@H](O[C@H]6[C@H](OS(=O)(=O)O)[C@@H](OS(=O)(=O)O)[C@@H](OC)O[C@@H]6COS(=O)(=O)O)O[C@H]5C(=O)O)O[C@@H]4COS(=O)(=O)O)O[C@@H]3C(=O)O)O[C@@H]2COS(=O)(=O)O)nn1)[C@@H](C)O)C(=O)N[C@@H](Cc1c[nH]c2ccccc12)C(N)=O [Conjugate C31]
[1]
  half-life at 750 nM: > 240 h

## CO[C@H]1O[C@H](COS(=O)(=O)O)[C@@H](O[C@@H]2O[C@@H](C(=O)O)[C@@H](O[C@H]3O[C@H](COS(=O)(=O)O)[C@@H](O[C@@H]4O[C@H](C(=O)O)[C@@H](O[C@H]5O[C@H](COS(=O)(=O)O)[C@@H](OCCOCCOCCOCCNC(=O)CCc6cn(CCCCC(=O)N[C@H](Cc7ccc(O)cc7)C(=O)N7C[C@H](O)C[C@H]7C(=O)N[C@@H](CC(N)=O)C(=O)N[C@H](C(=O)N[C@@H](Cc7ccccc7)C(=O)NCC(=O)N[C@@H](CC(C)C)C(=O)N[C@@H](CCCNC(=N)N)C(=O)N[C@@H](Cc7c[nH]c8ccccc78)C(N)=O)[C@@H](C)O)nn6)[C@H](OC)[C@H]5OC)[C@H](OC)[C@H]4OC)[C@H](OS(=O)(=O)O)[C@H]3OS(=O)(=O)O)[C@H](OC)[C@H]2OC)[C@H](OC)[C@H]1OS(=O)(=O)O [Conjugate C38]
[2]; [4]
  EC50: 0.0427 nM
[2]; [5]
  EC50: 0.316 nM

## CO[C@H]1O[C@H](COS(=O)(=O)O)[C@@H](O[C@@H]2O[C@@H](C(=O)O)[C@@H](O[C@H]3O[C@H](COS(=O)(=O)O)[C@@H](O[C@@H]4O[C@H](C(=O)O)[C@@H](O[C@H]5O[C@H](COS(=O)(=O)O)[C@@H](OCCOCCOCCOCCNC(=O)CCc6cn(CCCCC(=O)N[C@H](Cc7ccc(O)cc7)C(=O)N7C[C@H](O)C[C@H]7C(=O)N[C@@H](CC(N)=O)C(=O)N[C@H](C(=O)N[C@@H](Cc7ccccc7)C(=O)NCC(=O)N[C@@H](CC(C)C)C(=O)N[C@@H](CCCNC(=N)N)C(=O)N[C@@H](Cc7c[nH]c8ccccc78)C(N)=O)[C@@H](C)O)nn6)[C@H](OC)[C@H]5OC)[C@H](OC)[C@H]4OC)[C@H](OS(=O)(=O)O)[C@H]3OS(=O)(=O)O)[C@H](OC)[C@H]2OC)[C@H](OS(=O)(=O)O)[C@H]1OS(=O)(=O)O [Conjugate C39]
[2]; [4]
  EC50: 0.0646 nM
[2]; [5]
  EC50: 2.69 nM

## CO[C@H]1O[C@H](COS(=O)(=O)O)[C@@H](O[C@@H]2O[C@@H](C(=O)O)[C@@H](O[C@H]3O[C@H](COS(=O)(=O)O)[C@@H](O[C@@H]4O[C@H](C(=O)O)[C@@H](O[C@H]5O[C@H](COS(=O)(=O)O)[C@@H](OCCOCCOCCOCCNC(=O)CCc6cn(CCOCCOCCOCCOCCC(=O)N[C@@H](Cc7ccc(O)cc7)C(=O)N7C[C@H](O)C[C@H]7C(=O)N[C@@H](CC(N)=O)C(=O)N[C@H](C(=O)N[C@@H](Cc7ccccc7)C(=O)NNC(=O)N[C@@H](CC(C)C)C(=O)N[C@@H](CCCNC(=N)N)C(=O)N[C@@H](Cc7c[nH]c8ccccc78)C(N)=O)[C@@H](C)O)nn6)[C@H](OC)[C@H]5OC)[C@H](OC)[C@H]4OC)[C@H](OS(=O)(=O)O)[C@H]3OS(=O)(=O)O)[C@H](OC)[C@H]2OC)[C@H](OC)[C@H]1OS(=O)(=O)O [Conjugate C40]
[2]; pEC50, absence of human serum
  EC50: 0.347 nM
[2]; [3]
  EC50: 1.66 nM
